According to the supplement of paper PMC7125110:
± gives the standard error. Variants at the floor of the assay were thinned out.

B1: glmS ribozyme (parent)
chain: AUAAAAGCGCCAGAACUACAGAAAUGUAGUUGACGAGGAGGAGGUUUAUCGAAUUUUCGGCGGAUGCCUCCAAA

Experiments:
Settings in all cases: with glucosamine-6-phosphate
[1] = variants of: B1; assay: self-cleavage kobs at 40 uM GlcN6P; higher = faster cleavage; RNA array
Outline: (§1)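 Tiles of sequenced MiSeq chips were imaged over ~14 h at 37 °C. On them, barcoded ribozyme variants had been transcribed in situ by E. coli RNA polymerase and were tracked via a hybridised Cy3 probe while glucosamine-6-phosphate (40 μM to 10 mM) in HEPES/KCl/Mg(OAc)2 buffer flowed in. Per-tile medians, normalised to baseline and to non-cleaving reference variants, were fit to one- or two-exponential decays for kobs, and weighted Michaelis–Menten fits gave kcat and KM.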

[2] = variants of: B1; assay: self-cleavage kobs at 160 uM GlcN6P; higher = faster cleavage; RNA array
Outline: as §1

[3] = variants of: B1; assay: self-cleavage kobs at 640 uM GlcN6P; higher = faster cleavage; RNA array
Outline: as §1

[4] = variants of: B1; assay: self-cleavage kobs at 2500 uM GlcN6P; higher = faster cleavage; RNA array
Outline: as §1

[5] = variants of: B1; assay: self-cleavage kobs at 10000 uM GlcN6P; higher = faster cleavage; RNA array
Outline: as §1

Variant	self-cleavage kobs at 40 uM GlcN6P [1]	self-cleavage kobs at 160 uM GlcN6P [2]	self-cleavage kobs at 640 uM GlcN6P [3]	self-cleavage kobs at 2500 uM GlcN6P [4]	self-cleavage kobs at 10000 uM GlcN6P [5]
C11A C50A C68G	5.45e-05 ± 1.8e-05 s⁻¹	0.000352 ± 0.0001 s⁻¹	0.000154 ± 5.6e-05 s⁻¹	6.2e-05 ± 2.5e-05 s⁻¹	3.73e-05 ± 1.7e-05 s⁻¹
G13A A14U U31C	7.34e-05 ± 1.8e-05 s⁻¹				
G13C G35A	< 1e-05 s⁻¹	< 1e-05 s⁻¹	< 1e-05 s⁻¹	< 1e-05 s⁻¹	< 1e-05 s⁻¹
C11U A36C C61U	< 1e-05 s⁻¹		< 1e-05 s⁻¹		
A12U G44C U65A	< 1e-05 s⁻¹				
C11G A36C G37U G38U U49A G63C U65A	< 1e-05 s⁻¹				< 1e-05 s⁻¹
G13A C50G G66U U69A	8.64e-05 ± 2.3e-05 s⁻¹		0.000563 ± 0.00026 s⁻¹		0.000117 ± 3e-05 s⁻¹
A12C G32U C71A	< 1e-05 s⁻¹				
A12C A42U A64G	< 1e-05 s⁻¹		< 1e-05 s⁻¹		
C11A U46A	< 1e-05 s⁻¹		< 1e-05 s⁻¹		< 1e-05 s⁻¹
A12G G13A C61G	< 1e-05 s⁻¹				< 1e-05 s⁻¹
C11G A14U A39U	< 1e-05 s⁻¹				
C11U G29A G32U C50G	7.73e-05 ± 3.1e-05 s⁻¹				7.84e-05 ± 2.3e-05 s⁻¹
A12U A15G A39G	0.00105 ± 0.00021 s⁻¹				0.0688 ± 0.023 s⁻¹
A12C A24U A52C C67A	< 1e-05 s⁻¹				
G13A U31A A48C C50U G60U C67A	< 1e-05 s⁻¹				< 1e-05 s⁻¹
C11G A48C	< 1e-05 s⁻¹				< 1e-05 s⁻¹
A12G A33G C34U A48C C71G	< 1e-05 s⁻¹				
G13A U46C G59A	< 1e-05 s⁻¹				
G13A G32C G43U A48G U69A	< 1e-05 s⁻¹				
G13A A36U A48G C50G C61G	0.000674 ± 0.00026 s⁻¹				

Variant	self-cleavage kobs at 40 uM GlcN6P [1]	self-cleavage kobs at 160 uM GlcN6P [2]	self-cleavage kobs at 640 uM GlcN6P [3]	self-cleavage kobs at 2500 uM GlcN6P [4]	self-cleavage kobs at 10000 uM GlcN6P [5]
A12U U45G U46A	0.000262 ± 8.5e-05 s⁻¹			0.00886 ± 0.0031 s⁻¹	
A12G A15C G35U C71U	< 1e-05 s⁻¹	< 1e-05 s⁻¹			
C11G G43C A64U	< 1e-05 s⁻¹				< 1e-05 s⁻¹
C11U G62C	< 1e-05 s⁻¹	< 1e-05 s⁻¹	< 1e-05 s⁻¹	< 1e-05 s⁻¹	
C11A C34U	< 1e-05 s⁻¹		< 1e-05 s⁻¹		
C11A G51A	< 1e-05 s⁻¹		< 1e-05 s⁻¹		< 1e-05 s⁻¹
A12U U30A C70U	0.000748 ± 0.00013 s⁻¹				0.0461 ± 0.017 s⁻¹
G13A U30C A42U	< 1e-05 s⁻¹				< 1e-05 s⁻¹
C11U A64C	< 1e-05 s⁻¹				< 1e-05 s⁻¹
C11U A64U	< 1e-05 s⁻¹	< 1e-05 s⁻¹	< 1e-05 s⁻¹		
C11G G29C U31G G37A C68G	< 1e-05 s⁻¹				
A12G C61G	< 1e-05 s⁻¹				< 1e-05 s⁻¹
C11U G32C C58U C70G	4.92e-05 ± 2.1e-05 s⁻¹				
G13A U46C C67A	< 1e-05 s⁻¹		< 1e-05 s⁻¹		
G13C G38A C58U	< 1e-05 s⁻¹				
C11G G60C	< 1e-05 s⁻¹	< 1e-05 s⁻¹	< 1e-05 s⁻¹		< 1e-05 s⁻¹
A12C G62C	< 1e-05 s⁻¹			< 1e-05 s⁻¹	< 1e-05 s⁻¹
A12G G63A A64U	< 1e-05 s⁻¹	< 1e-05 s⁻¹		< 1e-05 s⁻¹	
A12C A42U C58U	< 1e-05 s⁻¹				
A12U G32U C50G	7.78e-05 ± 3.4e-05 s⁻¹				
A12U A36G U54A	< 1e-05 s⁻¹				

Variant	self-cleavage kobs at 40 uM GlcN6P [1]	self-cleavage kobs at 160 uM GlcN6P [2]	self-cleavage kobs at 640 uM GlcN6P [3]	self-cleavage kobs at 2500 uM GlcN6P [4]	self-cleavage kobs at 10000 uM GlcN6P [5]
C11U C34U	< 1e-05 s⁻¹		< 1e-05 s⁻¹		< 1e-05 s⁻¹
C11U A36G	< 1e-05 s⁻¹	< 1e-05 s⁻¹	< 1e-05 s⁻¹	< 1e-05 s⁻¹	
A12C U45A C58G C67G	< 1e-05 s⁻¹				
A12G U47A G60A	< 1e-05 s⁻¹	< 1e-05 s⁻¹	< 1e-05 s⁻¹		
C11A G32A A39U	< 1e-05 s⁻¹		< 1e-05 s⁻¹		
A12G G35C G60A U65G C68G	0.000127 ± 3.9e-05 s⁻¹			0.000384 ± 0.00015 s⁻¹	0.000121 ± 4.1e-05 s⁻¹
C11U G13U U57C G62C C67A	< 1e-05 s⁻¹				
A12U C34U G41U G66C	< 1e-05 s⁻¹			< 1e-05 s⁻¹	< 1e-05 s⁻¹
C11G C16A A33U C58G	< 1e-05 s⁻¹				
A12U A14G A64U G66U	< 1e-05 s⁻¹				
G13C G29U A48U	< 1e-05 s⁻¹		< 1e-05 s⁻¹		
G13A C50G U55G U57G G62U	8.98e-05 ± 2.1e-05 s⁻¹				5.32e-05 ± 1.5e-05 s⁻¹
C11G A33C	< 1e-05 s⁻¹	< 1e-05 s⁻¹		< 1e-05 s⁻¹	
A12U A14G C16G	0.000643 ± 0.00021 s⁻¹				
C11U C50G U65A C68A	8.61e-05 ± 2.8e-05 s⁻¹				
A12G A14U A36G A48G A53G	< 1e-05 s⁻¹			< 1e-05 s⁻¹	< 1e-05 s⁻¹
G13C A15C G51U	< 1e-05 s⁻¹				
A12C A15C U47A U49A	< 1e-05 s⁻¹				< 1e-05 s⁻¹
A12C C70U	0.000475 ± 4e-05 s⁻¹	0.00111 ± 0.00017 s⁻¹	0.00328 ± 0.00037 s⁻¹	0.0217 ± 0.0053 s⁻¹	0.0163 ± 0.0022 s⁻¹
